According to publication PMC8724787:

Legend:
[1] = target: DENV1 strain Hawaii envelope (E) protein on virions (Dengue virus 1 (strain Hawaii)); test: ELISA; apparent
[2] = target: DENV2 A259C (sE)2, disulfide engineered mutant dimer; test: BLI (steady state binding)
[3] = target: DENV3 A257C (sE)2, disulfide engineered mutant dimer; test: BLI (steady state binding)
[4] = target: DENV4 A259C (sE)2, disulfide engineered mutant dimer; test: BLI (steady state binding)
[5] = target: ZIKV-H/PF/2013 sE protein (aa 1-404); test: BLI (steady state binding)
[6] = target: DENV2 strain 16681 envelope (E) protein on virions (Dengue virus 2 (strain 16681)); test: ELISA
[7] = target: DENV3 strain H87 envelope (E) protein on virions (Dengue virus 3 (strain H87)); test: ELISA
[8] = target: DENV4 strain 1-0093 envelope (E) protein on virions (Dengue virus 4 (strain 1-0093)); test: ELISA
[9] = target: DENV1-FGA/89 sE protein (aa 1-395) (Dengue virus 1 (strain FGA/89)); test: crystal structure
[10] = target: DENV1-FGA/89 sE protein (aa 1-395) (Dengue virus 1 (strain FGA/89)); test: crystal structure; unbound sE
[11] = target: K^L66A C10 mAb mutant (IgG1) (human); test: BLI
[12] = target: DENV3-paH881 sE protein (aa 1-393) (Dengue virus 3 (strain paH881)); test: crystal structure
[13] = target: DENV3-paH881 sE protein (aa 1-393) (Dengue virus 3 (strain paH881)); test: crystal structure; unbound sE
[14] = target: DENV4_Burma/63632/1976 sE protein (aa 1-395) (Dengue virus 4 (strain Burma/63632/1976)); test: crystal structure
[15] = target: ZIKV-H/PF/2013 sE protein (aa 1-404) (Zika virus (strain H/PF/2013)); test: crystal structure
[16] = target: ZIKV-H/PF/2013 sE protein (aa 1-404) (Zika virus (strain H/PF/2013)); test: SEC-MALS; Superdex 200 10/300 GL; Tris 50 mM pH 8.0, NaCl 500 mM; about 150 ug protein; proteins alone and in complex

## C10 bivalent F(ab')2
[1]
  Kd: 3.84 nM

## C10 intact bivalent IgG1 (human monoclonal antibody EDE1 C10) L:K66A
[2]
  Kd: 259 nM
[3]
  Kd: 223 nM
[4]
  Kd: 1370 nM
[5]
  Kd: 40.3 nM

## C10 monovalent antigen binding fragment (Fab)
[6]
  fold difference in EC50 for virion binding, bivalent versus monovalent: 10 fold
[7]
  fold difference in EC50 for virion binding, bivalent versus monovalent: 2 logs
[8]
  fold difference in EC50 for virion binding, bivalent versus monovalent: 10 fold

## DENV1-FGA/89 sE protein (aa 1-395) (domain or fragment)
[9]
  stoichiometry N: 2
[10]
  stoichiometry N: 2

## DENV2 A259C (sE)2, disulfide engineered mutant dimer (domain or fragment)
[11]
  drop in affinity against wild-type C10: > 1 log

## DENV3 A257C (sE)2, disulfide engineered mutant dimer (domain or fragment)
[11]
  drop in affinity against wild-type C10: > 1 log

## DENV3-paH881 sE protein (aa 1-393) (domain or fragment)
[12]
  stoichiometry N: 2
[13]
  stoichiometry N: 2

## DENV4 A259C (sE)2, disulfide engineered mutant dimer (domain or fragment)
[11]
  drop in affinity against wild-type C10: > 1 log

## DENV4_Burma/63632/1976 sE protein (aa 1-395) (domain or fragment)
[14]
  stoichiometry N: 2

## ZIKV-H/PF/2013 sE protein (aa 1-404) (domain or fragment)
[15]
  stoichiometry N: 2
[16]
  stoichiometry N: 2
